In one test the target is T1, P6 (human).
T1 construct: linear 15-mer from the N-terminal coiled coil domain of human ANGPTL4
T1 peptide: MNVLAHGLLQLGQGL
In words: linear peptide array on glass (JPT). On the procedure: (§1) The ability of selected antibodies of invention, namely NEG276 and NEG318, to bind to linear 15-amino-acid peptides derived from the N-terminal coiled coil domain of human ANGPTL4 was tested. The peptides were immobilized on a glass surface, and the ability of NEG276 and NEG318 to bind to the immobilized peptides was evaluated using experimental methods optimized for linear peptide epitope mapping at JPT Peptide Technologies (Berlin, Germany).

The next test addresses T2, P28 (human).
T2 construct: linear 15-mer from the N-terminal coiled coil domain of human ANGPTL4
T2 peptide: TQLKAQNSRIQQLFH
As to the kind of experiment: linear peptide array on glass (JPT). The procedure: as §1

Another test addresses T3, P40 (human).
T3 construct: linear 15-mer from the N-terminal coiled coil domain of human ANGPTL4
T3 peptide: QFGLLDHKHLDHEVA
As to the kind of experiment: linear peptide array on glass (JPT). The procedure: as §1

The target in the next test is T4, P25 (human).
T4 construct: linear 15-mer from the N-terminal coiled coil domain of human ANGPTL4
T4 peptide: DPEVLHSLQTQLKAQ
In words: linear peptide array on glass (JPT). On the procedure:
as §1

Test [1] deals with T5, Human ANGPTL3(17-460)-FLAG-His-Avi (human, UniProt Q9Y5C1 17-460, biotin on the C-terminal Avi tag (BirA)).
T5 construct: also called full length human ANGPTL3; hANGPTL3
T5 sequence: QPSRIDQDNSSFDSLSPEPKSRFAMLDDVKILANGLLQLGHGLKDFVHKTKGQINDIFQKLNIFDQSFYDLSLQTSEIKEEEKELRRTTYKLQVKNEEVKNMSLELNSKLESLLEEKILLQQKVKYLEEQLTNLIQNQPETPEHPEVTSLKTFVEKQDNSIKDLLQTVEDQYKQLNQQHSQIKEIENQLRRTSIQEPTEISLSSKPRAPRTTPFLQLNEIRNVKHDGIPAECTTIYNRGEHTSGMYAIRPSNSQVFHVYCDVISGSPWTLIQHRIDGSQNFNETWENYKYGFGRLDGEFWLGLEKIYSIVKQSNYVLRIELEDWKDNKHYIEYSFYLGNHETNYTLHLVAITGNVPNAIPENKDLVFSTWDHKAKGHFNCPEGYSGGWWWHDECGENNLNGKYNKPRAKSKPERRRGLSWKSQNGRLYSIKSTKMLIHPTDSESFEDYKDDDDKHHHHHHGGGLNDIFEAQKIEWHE
In words: direct ELISA on MSD streptavidin plate, biotinylated antigen immobilized at 1 nM, antibody at 1 nM, Sulfo-tagged anti-human IgG detection. On the procedure:
Direct ELISA assays were conducted to characterize antibody binding specificity of selected antibodies of the invention. The assay was performed as follows. A 384-well streptavidin-coated Meso Scale Discovery (MSD) plate was blocked by incubating the plate with 50 μL Blocking Buffer (PBS, pH 7.4, 5% w/v bovine serum albumin) per well at 22° C. for 1 hour with constant shaking (600 rpm). The blocked MSD plate was then washed 3 times with Wash Buffer (PBS, pH 7.4 and 0.05% v/v Tween-20) using a plate washer (BioTek). Following washing, biotinylated human ANGPTL4 proteins diluted in Assay Buffer (PBS, pH 7.4 without CaCl₂ or MgCl₂, 0.5% w/v fatty acid-free bovine serum albumin and 0.02% v/v Tween-20) were immobilized on the surface by incubation at 1 nM concentration (15 μL per well) at 22° C. for one hour: full length human ANGPTL4 (hANGPTL4), human ANGPTL4 coiled-coil domain (hANGPTL4-CCD) and full length human ANGPTL3 (hANGPTL3). The plate was then washed 3 times as described earlier. Antibody diluted to 1 nM concentration in Assay Buffer was then applied to the MSD plate (15 μL per well), and the plate was incubated for 1 hour at 22° C. with constant shaking (600 rpm). Bound antibodies were detected by adding 15 μL per well of a 1:500 dilution of Sulfo-tagged goat anti-human IgG. The plate was then incubated for one hour with constant shaking (600 rpm). The plate was washed 3 times, and then 15 μL/well of 1× MSD read buffer T was added and the plate was developed using a Sector Imager 6000 (Meso Scale Discovery). The data were transferred to Microsoft Excel for analysis and plotted using GraphPad Prism v6. […] An ANGPTL3-specific reference antibody was used as a positive control for the ANGPTL3 binding assay (FIG. 2).
In general terms: An ELISA detects its analyte on a solid surface through an enzyme-linked reagent.

The target of test [2] is T6, Human ANGPTL4(26-406)-FLAG-His6-Avi (human, UniProt Q9BY76 24-406, biotin on the C-terminal Avi tag (BirA) where the protein is immobilised).
T6 construct: the text calls it 20 amino acids), then QP, ANGPTL4 26-406 and FLAG-His6-Avi; the signal peptide is left out here; also called full length human ANGPTL4; hANGPTL4
T6 sequence: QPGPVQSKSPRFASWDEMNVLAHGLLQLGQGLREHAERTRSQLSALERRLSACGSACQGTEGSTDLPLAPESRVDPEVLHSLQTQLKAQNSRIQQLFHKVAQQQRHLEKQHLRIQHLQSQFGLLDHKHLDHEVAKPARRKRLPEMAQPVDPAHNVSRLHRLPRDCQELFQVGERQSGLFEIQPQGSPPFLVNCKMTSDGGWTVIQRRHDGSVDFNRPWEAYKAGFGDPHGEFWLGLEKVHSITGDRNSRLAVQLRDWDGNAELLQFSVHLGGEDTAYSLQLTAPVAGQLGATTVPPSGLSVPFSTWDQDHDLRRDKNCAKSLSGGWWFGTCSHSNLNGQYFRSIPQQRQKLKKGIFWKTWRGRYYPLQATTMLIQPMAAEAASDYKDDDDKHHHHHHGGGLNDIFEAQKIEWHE
In words: Octet (ForteBio) kinetics, biotinylated antigen on streptavidin sensor, IgG in solution. The procedure:
Dissociation constants (KD) were determined for selected antibodies of the invention by using an Octet (ForteBio) kinetic binding assay. ForteBio 10× Kinetics Buffer (ForteBio, catalog number 18-5032) was diluted 10-fold with DPBS (Life Technologies, catalog number 14190-136), and the resulting solution was added (0.2 ml per well) to a 96-well plate (Greiner, catalog number 65520). Streptavidin sensors (ForteBio, catalog number 18-5020) were immersed in the solution and equilibrated for at least 10 min at room temperature. In a second 96-well plate (Greiner, catalog number 65520), sensors were washed in 1× Kinetics buffer, and then immersed in 200 ul of 25 nM biotinylated human ANGPTL4 or a biotinylated reference protein (for background subtraction) for 1000 sec at […] room temperature. […] The sensors were then transferred to a well containing 200 μl 1× Kinetics buffer, and antibody dissociation was monitored for 1200 seconds. Background-corrected association and dissociation curves were globally fitted by Octet Software (ForteBio) to generate association (kₐ) and dissociation (kd) rate constants, which in turn were used to calculate equilibrium dissociation constants (KD).
A general note: Biolayer interferometry detects binding as a change in optical thickness at a sensor tip.

For test [3], the target named is T6, Human ANGPTL4(26-406)-FLAG-His6-Avi. As to the kind of experiment: cell-based or functional assay.

The text below walks through data of patent US20220213181A1 (Novartis, published 2022).

B1: NEG318 (antibody, human IgG1, kappa, V domains shown)
VH: QVQLVQSGAEVKKPGASVKVSCKASGYTFTSFWITWVRQAPGQGLEWMGDIYPGGATTNYNEKLQGRVTLTVDTSTSTAYMELRSLRSDDTAVYYCARSPPQVGPFDYWGQGTLVTVSS
VL: DIQMTQSPSSLSASVGDRVTITCQASDYIYHWLAWYQQKPGKAPKLLISGASSLETGVPSRFSGSGSGKDYTFTISSLQPEDIATYYCQQYWSIPWTFGQGTKLEIKR
notes: humanized, hIgG1/kappa, parental antibody 14P18
Take B1: the binding result with P6 is recorded as “no binding”; in the test with P28, “no binding”; with P40 it was “no binding”; with P25 it was “no binding”; in test [1], “no binding (tested: 1 nM)”. For the same molecule, the Kd in test [2] is 0.045 nM. Moreover, the koff in test [2] was 1.2e-05 s⁻¹. The molecule also displayed a kon in test [2] of 270000 M⁻¹ s⁻¹. The “EC50 of the antibody-mediated increase in lipoprotein lipase enzyme activity (reversal of LPL inhibition by ANGPTL4)” value in test [3] came to 1.4 nM.

As a reminder, the Kd is the free concentration of one partner at which half of the binding sites on the other are occupied at equilibrium, for simple one-to-one binding. Low values mean a tighter complex, high ones a looser complex. As a reminder, the koff is a measure of how fast the partners let go of each other. The low end stands for a long-lived complex, the high end for a short-lived complex. The term kon denotes a measure of how fast the partners come together. Read a high kon as fast association.
